# Source: article PMC2951365 (PLoS ONE, 2010)
# Target: T1, ubiquitin (Ub) (UniProt P0CG48 1-76)
# T1 construct: ubiquitin, the mature 76-residue product of the polyubiquitin precursor; Used 15N-labelled or unlabelled; also called monoUb; 15N-labeled Ub; source: E. coli (pET-3a-Ub), purified (acetic acid denaturation, SP XL column, Superdex-75)
# Experiment: NMR titration; 15N-Ub (~0.2 mM) titrated with increasing amount of GB1-tagged UIM peptides; 1H-15N HSQC; 20 mM phosphate, 100 mM NaCl, pH 6.5, 25°C; apparent KD from I13, K48 and L71 of Ub; for AT3-UIM12 a simplified 1:2 fit with the two UIM motifs binding Ub equally
# Details: both partners purified
binder,measurement,value
"SEEDMLQAAVTMSLETVRND (domain or fragment, GB1 carrier and C-terminal His6 left out. The template's polyQ length is not printed. The printed limits are applied to the 361-aa UIM3-containing form, where they span the whole UIM3 and correspond …) [GB1-fused AT3-UIM3 (residues 335-354)]",Kd,> 3000 µM
